Publication PMC10397247
Values belong to the binder of their own block, whether it stands above or below them.

What was measured:
P7bH1 = target: T1, P7bH1; test: two-hybrid library CCNG1;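 note: natural log of median RNA to DNA barcode read ratio; higher means stronger binding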
T1 chain: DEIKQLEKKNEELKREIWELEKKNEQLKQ

P6bH1 = target: T2, P6bH1; test: two-hybrid library CCNG1;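 note: natural log of median RNA to DNA barcode read ratio; higher means stronger binding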
T2 chain: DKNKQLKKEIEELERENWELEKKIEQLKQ

P9bH1 = target: T3, P9bH1; test: two-hybrid library CCNG1;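 note: natural log of median RNA to DNA barcode read ratio; higher means stronger binding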
T3 chain: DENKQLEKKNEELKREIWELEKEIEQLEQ

P8bH1 = target: T4, P8bH1; test: two-hybrid library CCNG1;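 note: natural log of median RNA to DNA barcode read ratio; higher means stronger binding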
T4 chain: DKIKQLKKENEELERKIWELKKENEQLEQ

P4bH1 = target: T5, P4bH1; test: two-hybrid library CCNG1;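 note: natural log of median RNA to DNA barcode read ratio; higher means stronger binding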
T5 chain: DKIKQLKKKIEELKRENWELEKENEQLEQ

P5bH1 = target: T6, P5bH1; test: two-hybrid library CCNG1;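 note: natural log of median RNA to DNA barcode read ratio; higher means stronger binding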
T6 chain: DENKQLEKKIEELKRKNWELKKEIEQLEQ

P8mS = target: T7, P8mS; test: two-hybrid library CCNG1
T7 chain: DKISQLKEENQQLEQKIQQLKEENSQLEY

P9mS = target: T8, P9mS; test: two-hybrid library CCNG1
T8 chain: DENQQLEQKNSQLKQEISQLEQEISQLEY

P5A-bA = target: T9, P5A-bA; test: two-hybrid library CCNG1
T9 chain: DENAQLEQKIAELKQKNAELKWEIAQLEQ

P9A-bA = target: T10, P9A-bA; test: two-hybrid library CCNG1
T10 chain: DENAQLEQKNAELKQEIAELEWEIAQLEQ

P7A-bA = target: T11, P7A-bA; test: two-hybrid library CCNG1
T11 chain: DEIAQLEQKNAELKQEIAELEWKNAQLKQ

P6A-bA = target: T12, P6A-bA; test: two-hybrid library CCNG1
T12 chain: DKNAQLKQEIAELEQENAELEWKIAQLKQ

P8A-bA = target: T13, P8A-bA; test: two-hybrid library CCNG1
T13 chain: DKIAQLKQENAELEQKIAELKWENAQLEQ

4H349-bN = target: T14, 4H349-bN; test: two-hybrid library CCNG1
T14 chain: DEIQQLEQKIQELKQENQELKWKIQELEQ

4H3041-bN = target: T15, 4H3041-bN; test: two-hybrid library CCNG1
T15 chain: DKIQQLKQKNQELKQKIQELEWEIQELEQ

4H3364-bN = target: T16, 4H3364-bN; test: two-hybrid library CCNG1
T16 chain: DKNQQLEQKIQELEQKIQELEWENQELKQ

4H730-bN = target: T17, 4H730-bN; test: two-hybrid library CCNG1
T17 chain: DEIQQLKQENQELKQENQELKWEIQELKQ

4H3381-bN = target: T18, 4H3381-bN; test: two-hybrid library CCNG1
T18 chain: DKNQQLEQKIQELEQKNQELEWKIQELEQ

4H56-bN = target: T19, 4H56-bN; test: two-hybrid library CCNG1
T19 chain: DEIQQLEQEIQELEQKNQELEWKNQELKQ

4H2859-bN = target: T20, 4H2859-bN; test: two-hybrid library CCNG1
T20 chain: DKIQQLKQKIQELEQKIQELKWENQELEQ

4H2585-bN = target: T21, 4H2585-bN; test: two-hybrid library CCNG1
T21 chain: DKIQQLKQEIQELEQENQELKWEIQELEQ

4H264-bN = target: T22, 4H264-bN; test: two-hybrid library CCNG1
T22 chain: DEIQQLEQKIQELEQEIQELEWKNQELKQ

4H2931-bN = target: T23, 4H2931-bN; test: two-hybrid library CCNG1
T23 chain: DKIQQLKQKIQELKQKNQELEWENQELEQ

4H796-bN = target: T24, 4H796-bN; test: two-hybrid library CCNG1
T24 chain: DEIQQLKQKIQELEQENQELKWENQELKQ

4H2760-bN = target: T25, 4H2760-bN; test: two-hybrid library CCNG1
T25 chain: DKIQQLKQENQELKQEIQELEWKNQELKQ

4H3297-bN = target: T26, 4H3297-bN; test: two-hybrid library CCNG1
T26 chain: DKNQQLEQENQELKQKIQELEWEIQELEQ

4H949-bN = target: T27, 4H949-bN; test: two-hybrid library CCNG1
T27 chain: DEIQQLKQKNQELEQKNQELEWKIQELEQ

4H346-bN = target: T28, 4H346-bN; test: two-hybrid library CCNG1
T28 chain: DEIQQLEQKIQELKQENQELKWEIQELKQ

4H932-bN = target: T29, 4H932-bN; test: two-hybrid library CCNG1
T29 chain: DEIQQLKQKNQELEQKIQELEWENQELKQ

4H3409-AA = target: T30, 4H3409-AA; test: two-hybrid library CCmax; settings: mean of both orientations
T30 chain: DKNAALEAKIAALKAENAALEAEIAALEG

4H3940-AA = target: T31, 4H3940-AA; test: two-hybrid library CCmax; settings: mean of both orientations
T31 chain: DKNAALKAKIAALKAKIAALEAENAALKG

4H2758-AA = target: T32, 4H2758-AA; test: two-hybrid library CCmax; settings: mean of both orientations
T32 chain: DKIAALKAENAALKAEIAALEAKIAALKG

4H3625-AA = target: T33, 4H3625-AA; test: two-hybrid library CCmax; settings: mean of both orientations
T33 chain: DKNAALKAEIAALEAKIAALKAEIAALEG

4H87-AA = target: T34, 4H87-AA; test: two-hybrid library CCmax
T34 chain: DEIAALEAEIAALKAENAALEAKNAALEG

4H2646-AA = target: T35, 4H2646-AA; test: two-hybrid library CCmax
T35 chain: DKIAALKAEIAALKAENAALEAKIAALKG

4H2985-AA = target: T36, 4H2985-AA; test: two-hybrid library CCmax; settings: mean of both orientations
T36 chain: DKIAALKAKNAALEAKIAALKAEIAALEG

4H816-AA = target: T37, 4H816-AA; test: two-hybrid library CCmax; settings: mean of both orientations
T37 chain: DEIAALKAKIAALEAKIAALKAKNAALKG

4H2687-AA = target: T38, 4H2687-AA; test: two-hybrid library CCmax; settings: mean of both orientations
T38 chain: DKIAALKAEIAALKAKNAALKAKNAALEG

4H390-AA = target: T39, 4H390-AA; test: two-hybrid library CCmax; settings: mean of both orientations
T39 chain: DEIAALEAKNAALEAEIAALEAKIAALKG

4H2705-AA = target: T40, 4H2705-AA; test: two-hybrid library CCmax; settings: mean of both orientations
T40 chain: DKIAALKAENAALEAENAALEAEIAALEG

4H510-AA = target: T41, 4H510-AA; test: two-hybrid library CCmax; settings: mean of both orientations
T41 chain: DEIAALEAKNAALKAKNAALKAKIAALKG

4H2873-AA = target: T42, 4H2873-AA; test: two-hybrid library CCmax; settings: mean of both orientations
T42 chain: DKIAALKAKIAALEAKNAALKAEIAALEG

4H3134-AA = target: T43, 4H3134-AA; test: two-hybrid library CCmax; settings: mean of both orientations
T43 chain: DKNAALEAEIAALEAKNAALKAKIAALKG

4H775-AA = target: T44, 4H775-AA; test: two-hybrid library CCmax; settings: mean of both orientations
T44 chain: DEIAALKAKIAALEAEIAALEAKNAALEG

4H278-AA = target: T45, 4H278-AA; test: two-hybrid library CCmax; settings: mean of both orientations
T45 chain: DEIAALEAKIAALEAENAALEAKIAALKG

4H3926-bA = target: T46, 4H3926-bA; test: two-hybrid library CCNG1
T46 chain: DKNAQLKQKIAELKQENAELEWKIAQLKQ

4H3112-bA = target: T47, 4H3112-bA; test: two-hybrid library CCNG1
T47 chain: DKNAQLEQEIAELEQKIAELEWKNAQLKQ

4H797-bA = target: T48, 4H797-bA; test: two-hybrid library CCNG1
T48 chain: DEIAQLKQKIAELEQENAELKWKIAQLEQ

4H575-bA = target: T49, 4H575-bA; test: two-hybrid library CCNG1
T49 chain: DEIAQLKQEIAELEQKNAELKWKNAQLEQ

4H2673-bA = target: T50, 4H2673-bA; test: two-hybrid library CCNG1
T50 chain: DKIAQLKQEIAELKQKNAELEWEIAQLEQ

4H918-bA = target: T51, 4H918-bA; test: two-hybrid library CCNG1
T51 chain: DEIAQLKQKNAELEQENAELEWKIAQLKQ

4H3427-bA = target: T52, 4H3427-bA; test: two-hybrid library CCNG1
T52 chain: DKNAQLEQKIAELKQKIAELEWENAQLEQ

4H4073-bA = target: T53, 4H4073-bA; test: two-hybrid library CCNG1
T53 chain: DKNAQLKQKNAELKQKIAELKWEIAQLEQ

4H968-bA = target: T54, 4H968-bA; test: two-hybrid library CCNG1
T54 chain: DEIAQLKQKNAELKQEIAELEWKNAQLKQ

4H346-bA = target: T55, 4H346-bA; test: two-hybrid library CCNG1
T55 chain: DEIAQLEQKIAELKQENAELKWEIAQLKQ

4H3010-bA = target: T56, 4H3010-bA; test: two-hybrid library CCNG1
T56 chain: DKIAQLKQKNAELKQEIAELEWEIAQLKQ

4H780-bA = target: T57, 4H780-bA; test: two-hybrid library CCNG1
T57 chain: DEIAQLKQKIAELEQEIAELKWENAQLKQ

4H2702-bA = target: T58, 4H2702-bA; test: two-hybrid library CCNG1
T58 chain: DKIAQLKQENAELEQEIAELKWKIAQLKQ

4H754-bA = target: T59, 4H754-bA; test: two-hybrid library CCNG1
T59 chain: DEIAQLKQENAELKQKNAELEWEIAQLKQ

4H683-bA = target: T60, 4H683-bA; test: two-hybrid library CCNG1
T60 chain: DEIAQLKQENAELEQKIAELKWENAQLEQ

4H2627-bA = target: T61, 4H2627-bA; test: two-hybrid library CCNG1
T61 chain: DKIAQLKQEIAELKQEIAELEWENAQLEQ

4H457-bA = target: T62, 4H457-bA; test: two-hybrid library CCNG1; settings: mean of both orientations
T62 chain: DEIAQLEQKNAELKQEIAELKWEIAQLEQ

4H953-bA = target: T63, 4H953-bA; test: two-hybrid library CCNG1
T63 chain: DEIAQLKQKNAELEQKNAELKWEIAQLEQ

4H855-bA = target: T64, 4H855-bA; test: two-hybrid library CCNG1
T64 chain: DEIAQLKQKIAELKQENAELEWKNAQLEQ

Binder: DKIQQLKQEIQELEQENQELKWEIQELEQ [4H2585-bN]
interaction score (4H349-bN): 1.61
interaction score (4H3041-bN): -0.321
interaction score (4H3364-bN): -0.855
interaction score (4H730-bN): -0.949
interaction score (4H3381-bN): -2.06
interaction score (4H56-bN): -0.978
interaction score (4H2859-bN): 0.161
interaction score (4H2585-bN): -0.804
interaction score (4H264-bN): -0.828
interaction score (4H2931-bN): -0.905
interaction score (4H796-bN): -0.881
interaction score (4H2760-bN): -1.01
interaction score (4H3297-bN): -0.64
interaction score (4H949-bN): -0.975
interaction score (4H346-bN): 2.36
interaction score (4H932-bN): -1.52

Binder: DKIAALKAEIAALKAENAALEAKIAALKG [4H2646-AA]
interaction score (4H3409-AA): -0.0843
interaction score (4H3940-AA): -1.27
interaction score (4H2758-AA): -0.75
interaction score (4H3625-AA): -0.363
interaction score (4H87-AA): 2.43
interaction score (4H2646-AA): 1.66
interaction score (4H2985-AA): -0.411
interaction score (4H816-AA): -1.37
interaction score (4H2687-AA): 1.36
interaction score (4H390-AA): 1.18
interaction score (4H2705-AA): -1.19
interaction score (4H510-AA): 2.02
interaction score (4H2873-AA): 1.89
interaction score (4H3134-AA): 1.28
interaction score (4H775-AA): -0.478
interaction score (4H278-AA): 0.745

Binder: DKIAQLKQEIAELKQEIAELEWENAQLEQ [4H2627-bA]
interaction score (4H3926-bA): -0.308
interaction score (4H3112-bA): 0.764
interaction score (4H797-bA): -1.1
interaction score (4H575-bA): 0.64
interaction score (4H2673-bA): -0.531
interaction score (4H918-bA): -1.03
interaction score (4H3427-bA): 1.03
interaction score (4H4073-bA): 1.07
interaction score (4H968-bA): -0.842
interaction score (4H346-bA): -1.21
interaction score (4H3010-bA): -0.0123
interaction score (4H780-bA): -0.421
interaction score (4H2702-bA): 0.286
interaction score (4H754-bA): -1.42
interaction score (4H683-bA): -0.856
interaction score (4H2627-bA): 0.441
interaction score (4H457-bA): -0.508
interaction score (4H953-bA): -0.555
interaction score (4H855-bA): -1.42

Now from value to binder:

interaction score (P7bH1): -0.994
interaction score (P6bH1): -0.487
interaction score (P9bH1): -0.46
interaction score (P8bH1): -0.993
interaction score (P4bH1): -1.18
interaction score (P5bH1): -1.09
Binder: DKIKQLKKKIEELKRENWELEKENEQLEQ [P4bH1]

interaction score (P8mS): -1.02
interaction score (P9mS): -0.61
Binder: DKISQLKEENQQLEQKIQQLKEENSQLEY [P8mS]

interaction score (P5A-bA): -1.22
interaction score (P9A-bA): -0.7
interaction score (P7A-bA): -1.32
interaction score (P6A-bA): 2.33
interaction score (P8A-bA): 0.0376
Binder: DENAQLEQKIAELKQKNAELKWEIAQLEQ [P5A-bA]

interaction score (P7bH1): -2.02
interaction score (P6bH1): 1.31
interaction score (P9bH1): -0.9
interaction score (P8bH1): 0.944
interaction score (P5bH1): -0.609
Binder: DENKQLEKKIEELKRKNWELKKEIEQLEQ [P5bH1]
